For 1 substance, IL-8 release assay in MRC-5 cells (IL-1a stimulated), EC50 results are on record in patent US20120064064A1.

The assay concerns the target human IL1-R (human) (UniProt P14778). The experiment in a line: cell-based or functional assay.
Sequence of UniProt P14778 (P14778 18-569): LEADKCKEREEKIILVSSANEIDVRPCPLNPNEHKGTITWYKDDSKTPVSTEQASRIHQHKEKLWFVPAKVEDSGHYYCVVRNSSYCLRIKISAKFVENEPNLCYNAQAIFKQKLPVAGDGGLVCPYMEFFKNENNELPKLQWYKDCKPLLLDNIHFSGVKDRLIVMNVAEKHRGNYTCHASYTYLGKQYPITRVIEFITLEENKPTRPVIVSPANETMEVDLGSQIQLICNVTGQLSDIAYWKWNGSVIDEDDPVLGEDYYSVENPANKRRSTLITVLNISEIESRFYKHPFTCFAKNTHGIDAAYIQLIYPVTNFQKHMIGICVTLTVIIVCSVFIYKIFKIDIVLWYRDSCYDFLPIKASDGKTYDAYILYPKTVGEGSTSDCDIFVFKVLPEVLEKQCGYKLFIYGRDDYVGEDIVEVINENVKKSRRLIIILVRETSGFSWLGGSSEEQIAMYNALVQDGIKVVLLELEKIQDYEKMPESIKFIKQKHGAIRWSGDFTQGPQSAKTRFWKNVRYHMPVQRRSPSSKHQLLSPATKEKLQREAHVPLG

For the substance “natural IL1-R antagonist (IL1-Ra) (from UniProt P18510 26-177) (ligand)”, the IL-8 release assay in MRC-5 cells (IL-1a stimulated), EC50 was 0.074 nM.
